In article PMC11897055 one finds degradation_or_half_life, enzymatic_activity and localisation_or_trafficking data, which are given here for 3 substances.

The conditions of this data set: other: succinylation at K130.

In the case of “superoxide dismutase 2 (SOD2): CPT1A knockdown”, the degradation_or_half_life entry is given as “no change”, the enzymatic_activity entry was “decreases” and the localisation_or_trafficking result is recorded as “decreases”.

Consider “superoxide dismutase 2 (SOD2): ST1326 (CPT1A inhibitor, 10 μM, 48 h)”, for which the enzymatic_activity entry is recorded as “decreases”.

For the substance superoxide dismutase 2 (SOD2): K130R, the enzymatic_activity result was “decreases” and the localisation_or_trafficking result is on record as “decreases”.
